Patent publication US20090170718

Biological target: Botulinum neurotoxin type A light chain (BoNT/A-rLc) (UniProt P0DPI1)

Sequence: AGCAGCACAGAGGTCAGATGNNNNNNNNNNNNNNNNNNNNNNNNNNNNNNNNNNNNNNNNNNNNNNNNNNNNNNNNNNNNCCTATGCGTGCTACCGTGAA [round 1 enriched aptamer pool (M-SELEX)]
- Kd: 0.033 µM
